Measured values as given in publication PMC11148541 (Cancer Immunology Research, 2024).

Target: T1, mouse IL18BPd-Fc (mouse, UniProt Q9Z0M9 29-193)
T1 sequence: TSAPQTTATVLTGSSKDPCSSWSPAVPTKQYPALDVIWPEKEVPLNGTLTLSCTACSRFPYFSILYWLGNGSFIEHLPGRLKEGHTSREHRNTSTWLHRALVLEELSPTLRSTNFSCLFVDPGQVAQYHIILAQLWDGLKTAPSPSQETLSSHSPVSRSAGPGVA
Assay: KinExA

B1: mouse IL18 (ligand)
chain: NFGRLHCTTAVIRNINDQVLFVDKRQPVFEDMTDIDQSASEPQTRLIIYMYKDSEVRGLAVTLSVKDSKMSTLSCKNKIISFEEMDPPENIDDIQSDLIFFQKRVPGHNKMEFESSLYEGHFLACQKEDDAFKLILKKKDENGDKSVMFTLTNLHQS
Kd: 3.7 pM
